Assay results: patent publication US20190374608A1 (BOARD OF TRUSTEES OF THE UNIVERSITY OF ILLINOIS, published 2019)
Where no end group is shown, it is not given here. (CH2CH2O)27 = 27 units of polyethylene glycol linked to the C-terminal Asp, ending in NH2

B1: R3-2-1 peptide (CCR3 second transmembrane helix peptide analog, PEG27, C-terminal amide) (peptide)
peptide: LLFLVTLPFWIHYVRGHNWVFGHDDD-{(CH2CH2O)27-NH2}
B2: recombinant human CCL11 (ligand)
chain: not shown
notes: also called eotaxin; eotaxin-1

What was measured:
[1] = molecular target: T1, human CCR3 on cells (AML14.3D10-CCR3 cells, blood eosinophils, 4DE4-CCR3 cells) (human, UniProt P51677 1-355); test: cell-based or functional assay
T1 sequence (looked up): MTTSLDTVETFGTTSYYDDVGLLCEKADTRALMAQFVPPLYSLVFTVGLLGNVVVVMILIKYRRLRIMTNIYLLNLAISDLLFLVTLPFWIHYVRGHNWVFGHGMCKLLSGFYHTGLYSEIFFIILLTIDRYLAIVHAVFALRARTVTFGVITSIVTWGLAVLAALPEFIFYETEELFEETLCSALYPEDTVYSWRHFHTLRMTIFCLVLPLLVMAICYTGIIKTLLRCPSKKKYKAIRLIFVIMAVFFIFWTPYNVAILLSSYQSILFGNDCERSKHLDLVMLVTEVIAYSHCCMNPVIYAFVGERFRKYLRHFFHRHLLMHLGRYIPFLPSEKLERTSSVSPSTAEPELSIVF

[2] = molecular target: T2, human CCR3 in membrane preparations, 13C-reductively methylated (CCR3-K-di13CH3) (human, UniProt P51677 1-355, lysines reductively methylated with 13C (K-di13CH3)); test: NMR, 13C HSQC of 13C-reductively methylated CCR3 membrane preps (0.25 mg/ml) with 1 µM CCL11
T2 construct: also called CCR3 membrane preps; C-C chemokine receptor 3
T2 sequence (looked up): T1 sequence (looked up)
Experimental: FIG. 6A to FIG. 6E show NMR evaluation of the binding of R3-2-1 and CCL11/eotaxin-1 to CCR3 membrane preparations. ¹³C HSQC spectra of ¹³C-reductively methylated CCR3 membrane preps (0.25 mg/ml) were recorded with 1 μM CCL11 and 10 μM R321. FIG. 6A, reductively methylated CCR3 (CCR3-K-di¹³CH3) (gray) and reductively methylated CCR3 with CCL11 (black); FIG. 6B, reductively methylated CCR3 (CCR3-K-di¹³CH3) (gray) and reductively methylated CCR3 with R321 (black); FIG. 6C, reductively methylated CCR3 (CCR3-K-di¹³CH3) (gray) and reductively methylated CCR3 with CCL11 and R321 (black); FIG. 6D, reductively methylated CCR3 with CCL11 (gray) and reductively methylated CCR3 with CCL11 and R321 (black); and FIG. 6E, reductively methylated CCR3 with R321 (gray) and reductively methylated CCR3 with CCL11 and R321 (black) show chemical shift changes indicative of binding. Black arrows indicate the differences in chemical shifts.

Binder | IC50 of inhibition of CCL11/Eotaxin-1 (12 nM)-induced chemotaxis, AML14.3D10-CCR3 cells [1] [nM] | IC50 of inhibition of CCL11/Eotaxin-1 (12 nM)-induced chemotaxis, blood eosinophils [1] [nM] | IC50 of inhibition of CCL24/Eotaxin-2 (20 nM)-induced chemotaxis, AML14.3D10-CCR3 cells [1] [nM] | IC50 of inhibition of CCL24/Eotaxin-2 (20 nM)-induced chemotaxis, blood eosinophils [1] [nM] | IC50 of inhibition of CCL26/Eotaxin-3 (100 nM)-induced chemotaxis, AML14.3D10-CCR3 cells [1] [nM] | IC50 of inhibition of CCL26/Eotaxin-3 (100 nM)-induced chemotaxis, blood eosinophils [1] [nM] | binding result [2]
B1 | 210 | 110 | 140 | 80 | 100 | 160 | –
B2 | – | – | – | – | – | – | binds
